The values below come from US5789547.

The assay has as its target human insulin-like growth factor-I (IGF-I) (human).

For “human insulin-like growth factor binding protein-3 (IGFBP-3), recombinant, from pDJ12833 (from UniProt P17936)”, the yield of correctly folded (native) protein by RP-HPLC after cofolding, against each protein refolded alone was found to be 99.6%.
